Results as given in US20160032005A1 (INSERM INSTITUT NATIONAL DE LA SANTE ET DE LA RECHERCHE …, published 2016).

B1: Vangl2 in COS-7 cells (receptor)
chain: MDTESQYSGYSYKSGHSRSSRKHRDRRDRHRSKSRDGGRGDKSVTIQAPGEPLLDNESTRGDERDDNWGETTTVVTGTSEHSISHDDLTRIAKDMEDSVPLDCSRHLGVAAGATLALLSFLTPLAFLLLPPLLWREELEPCGTACEGLFISVAFKLLILLLGSWALFFRRPKASLPRVFVLRALLMVLVFLLVVSYWLFYGVRILDARERSYQGVVQFAVSLVDALLFVHYLAVVLLELRQLQPQFTLKVVRSTDGASRFYNVGHLSIQRVAVWILEKYYHDFPVYNPALLNLPKSVLAKKVSGFKVYSLGEENSTNNSTGQSRAVIAAAARRRDNSHNEYYYEEAEHERRVRKRRARLVVAVEEAFTHIKRLQEEEQKNPREVMDPREAAQAIFASMARAMQKYLRTTKQQPYHTMESILQHLEFCITHDMTPKAFLERYLAAGPTIQYHKERWLAKQWTLVSEEPVTNGLKDGIVFLLKRQDFSLVVSTKKVPFFKLSEEFVDPKSHKFVMRLQSETSV
notes: Vangl2 immunoprecipitated with 2G4 mAb from COS-7 cells
B2: EGFP-tagged p62 (1-122), PB1 domain alone (other)
chain: MASLTVKAYLLGKEDAAREIRRFSFCCSPEPEAEAEAAAGPGPCERLLSRVAALFPALRPGGFQAHYRDEDGDLVAFSSDEELTMAMSYVKDDIFRIYIKEKKECRRDHRPPCAQEAPRNMV
notes: not shown: EGFP tag

Key:
[1] = biological target: GFP-p62 with deletion of a region containing the LIR domain (256-370) (Homo sapiens, UniProt P42212 1-238 = GFP); assay: immunoprecipitation with 2G4 mAb, COS-7 cells
Vangl2 in COS-7 cells = biological target: B1; assay: immunoprecipitation with 2G4 mAb, COS-7 cells

Row | Binder | binding result [1] | binding result (Vangl2 in COS-7 cells)
1 | B1 | no binding | –
2 | B2 | – | no binding
